Measured values published in the nanobody polyreactivity screen of Harvey et al. (2022).

Assay: yeast display, Sf9 membrane polyspecificity reagent, FACS + sequencing; frameworks hold sequencing errors
In short: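 Nanobodies from a synthetic yeast display library (Saccharomyces cerevisiae BJ5465), induced 36–48 hours with galactose, were stained 1 hour at 4 °C with 10% biotinylated, detergent-solubilized Sf9 membrane reagent, enriched on streptavidin microbeads, then FACS-sorted. Anti-HA (expression) and streptavidin (reagent binding) fluorescence set low and high (top ~1%) gates. Polyreactivity labels come from the gate of origin. Genes were colony-PCR amplified, MiSeq 2 × 250 sequenced and filtered by CDR length.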

Row | Sequence | polyreactivity (PSR sort gate)
1 | QVQLVESGGGLVQAGGSLRLSCAASGRTFAVYAMGWYRQATGKERELVAAISSGGSTYYADSVKGRFTISRDNAKNTVYLQMNSLKPEDTAVYYCTARWGYRRGYCGQGTQVTVSS | high polyreactivity
2 | QVQLVESGGGLVQAGGSLRLSCAASGRTFAWKAMGWYRQAPGKERELVAAMSSRGTSTYYADSVKGRFTISRDNAKKTVYLQMNSLKPEDTAVYYCAKYTNPASGEYGYWGQGTQVTVSS | high polyreactivity
3 | QVQLVESGGGLVQAGGSLRLSCAASGRTFAWYAMGWYRQAPGKERELVAAISSGGSTYYADSVKGRFTISRDNAKNTVYLQMNSLKPEDTAVYYCAAEWHYIYAYDSWGQGTQVTVSS | low polyreactivity
4 | QVQLVESGGGLVQAGGSLRLSCAASGRTFAWYAMGWYRQAPGKERELVAAITTRGSGTYYADSVKGSFTISRDNAKNTVYLQMHSLKPEDTAVYYCAKDPITATTLDERVYYWGQGTQVTVSS | low polyreactivity
5 | QVQLVESGGGLVQAGGSLRLSCAASGRTFAYNAKGWYRQPPGKERELVASITVGGGSTYYADSVKGRFTISRDNAKNTVYLQMNSLKPEDTAVYYCAARVPSWKYDYWGQGTQVTVSS | high polyreactivity
6 | QVQLVESGGGLVQAGGSLRLSCAASGRTFAYNAMGWYRPAPGKERELVAAITGSGGRTYYADSVKGRFTISRDNAKNTVYLQMNSLKAEDTAVYYCAVGLPSRYDYWGQGTQVTVSS | low polyreactivity
7 | QVQLVESGGGLVQAGGSLRLSCAASGRTFAYNAMGWYRQAPGKEREMVASITSGGSTNYADSVKGRFTISRDNAKNNVYLQINSLIPEDTAVYYCNIDGKYHLVLYDYWGQGTQVTVSS | low polyreactivity
8 | QVQLVESGGGLVQAGGSLRLSCAASGRTFAYYAMGWYRQAPGKERELVAAIDSSGGSTYYADSVKGRFTISRDNAKNTVYLQMNSLKPEDTAVYYCAASYPYDRYDQGGYGYWGQGTQVTVSS | low polyreactivity
9 | QVQLVESGGGLVQAGGSLRLSCAASGRTFAYYAMGWYRQAPGKERELVSTITWSDGSTYADSVKGRFTISRDNAKNTVYLQMNSLKPEDTAVYYCAAQGWSWYWYYFYLFDYWGQGTQVTVSS | high polyreactivity
10 | QVQLVESGGGLVQAGGSLRLSCAASGRTFAYYTMGWYRQAPGKERELVDAISSRGGRTYYADSVKGRFTISRDNAKNTVYLQMNSLKPEDTAVYYCAAVSHGVYYQYRRRYYSWGQGTQVTVSS | high polyreactivity
11 | QVQLVESGGGLVQAGGSLRLSCAASGRTFCRYAMGWYIQAPGKERELVASISVSGGGTYYADSVKGRFTISRDNAKNTVFLQMNSLKPQDTAVYYCAARPVYYRYRRDYWGQGTHVTVSS | high polyreactivity
12 | QVQLVESGGGLVQAGGSLRLSCAASGRTFCTNAMGWYRQAPGKERELVAVISGSTGSTYYADSVKGRFTISRDNAKNTVYLQMNSLKPEDTAVYYCAASYRNTGRWSYRGDYWGQGTQVTVSS | high polyreactivity
13 | QVQLVESGGGLVQAGGSLRLSCAASGRTFCTNAMGWYRQAPGTERELVAVISGSTGSTYYADSVKGRFTISRDNAKNTVYLQMNSLKPEDTAVYYCAASYRNTGRWSYRGDYWGQGTQVTVSS | high polyreactivity
14 | QVQLVESGGGLVQAGGSLRLSCAASGRTFCYAMGWSRQAPGKERELVAAISYRGGGTYYADSVTGRFTISRDNAKYTVYLQMTSLKPEDTEVYFCNARQYRPWYPPYGYDYWGQGTQVTVSS | low polyreactivity
15 | QVQLVESGGGLVQAGGSLRLSCAASGRTFDAYTMGWYRQAPGKEMELVAAITFSGGNTYYADSVKGRFIISRDNAKNTVYLQMNSLKPEDTAVYYCAARHWIYSTDYSTYYEYDSWGQGTQVTVSS | low polyreactivity
16 | QVQLVESGGGLVQAGGSLRLSCAASGRTFDDNAMGWYRQAPGKEREFVADIDWSGGDTYYADSVKGRLTISRDNAKNTVYLQMNSLKPEDTAVYYCAARPIISVGRSRYDYWGQGTQVTVSS | high polyreactivity
17 | QVQLVESGGGLVQAGGSLRLSCAASGRTFDDYAMGRYRQAPGKERELVAVITDNGGGTNYADSVKGRFTISRDNAKNTVYLQMNSLKPEDTAVYYCNAASDDFYPGRRTYGRDYWGQGTQVTVSS | low polyreactivity
18 | QVQLVESGGGLVQAGGSLRLSCAASGRTFDDYTMGWYRQAPGKERELVAAITGGGSTNYADSVKGRFTISRDNAKNTVYLQMNSLKPEDTAVYYCNAEYSRSYRYDEGYWGQGTQVTVSS | low polyreactivity
19 | QVQLVESGGGLVQAGGSLRLSCAASGRTFDFYAKGWYRQAPGKERELVAAITFSTGSTTYADSVKGRFTISRDNAKNTVYLQMNSLKPEDTAVYYCAADGDGWWWSYVDRYDYWGQGTQVTVSS | low polyreactivity
20 | QVQLVESGGGLVQAGGSLRLSCAASGRTFDGYAMGWYRPAPGKERELVAAITYTGGSTYYADSVKGRFTISRDNAKNTVYLQMNSLKPEDTAVYYCNALYAVYSDFADDYWGQGTQVTVSS | low polyreactivity
21 | QVQLVESGGGLVQAGGSLRLSCAASGRTFDHNAMGWYRQAPGKERELVAAITSRGGSTYYADSVKGRFTISRDIAKYTGYLQMNSLKPEDTAVYYCAARKRSVYGTEYDYLGQGTQVTVSS | high polyreactivity
22 | QVQLVESGGGLVQAGGSLRLSCAASGRTFDIYAMGWYRPAPGKERELVAAISSGGSTYYADSVKGRFTISRDNAKNTVYLQMNSLKPEDTAVYYCAVRWYDQVSRRGIGYYWGQGTQVTVSS | low polyreactivity

Row | Sequence | polyreactivity (PSR sort gate)
23 | QVQLVESGGGLVQAGGSLRLSCAASGRTFDLYAMGWYRQAPGKERELVAAITKGGGSTYYADSVKGRFTLSRDNAKNTVYLQMHSLKPVDTAVYYCAARKYKRIYRISSGIGYYWGQGTQVTVSS | high polyreactivity
24 | QVQLVESGGGLVQAGGSLRLSCAASGRTFDLYAMGWYRQAPGKERELVATISRTGSTNYADSVKGRFTISRDNAKNTVYLQMNSLKPEDTAVYYCNADVPVSRWLRHGYYTVGYDYWGQGTQVTVSS | low polyreactivity
25 | QVQLVESGGGLVQAGGSLRLSCAASGRTFDRNAMGWYRQAPGKERELVAAITSSGDSTYYADSVKGRFTISRDNSKNTVYLQMNSLKPEDTAVYYCAAGRRFGYWGQGTQVNVSS | high polyreactivity
26 | QVQLVESGGGLVQAGGSLRLSCAASGRTFDSNAMGWYRQAPGKERELVAAISGSGDTTYYADSVKGRFTISRDNAKNTVYLQMNSLKPEDTAVYYCAARWGRSSGGGDYWGQGTQVTVSS | low polyreactivity
27 | QVQLVESGGGLVQAGGSLRLSCAASGRTFDSNAMGWYRQAPGKERELVAAISSGGGSTYYADSVKGRFTISRDNAKNTVYLQMNSLKPEDTAVYYCAAVYHYYRGVNYWGQGTQVTVSS | high polyreactivity
28 | QVQLVESGGGLVQAGGSLRLSCAASGRTFDTYAMGWYRQAPGKERELVAAITRRTYYADSVKGRFTISRDNAKNTVYLQMNSLKPEDTAVYYCAVRFLRKWTSSRHYGYWGQGTQVTVSS | high polyreactivity
29 | QVQLVESGGGLVQAGGSLRLSCAASGRTFDYNAMGWSRQAPGKERELVAAISSSGGSTYYADSVKGRFTISRDNAKNTVYLQMNSLKPEDTAVYYCATLYPRKSIYYYWGQGTQVTVSS | high polyreactivity
30 | QVQLVESGGGLVQAGGSLRLSCAASGRTFDYNAMGWYRQAPGKERELVAAISSSGGTTYYADPVKGRFTISRDNAKNTVYLQMNSLKPEDTAVYYCNADVGHKYKRRVSLYYWGQGTQVTVSS | low polyreactivity
31 | QVQLVESGGGLVQAGGSLRLSCAASGRTFDYNAMGWYRQAPGKEWELVADIRLISGNTYYADSVKGRFTISRDNAKNTVYLQMNSLKPEETAVYYCAATSDGVPSLYGGMDYRGQGTQVTVSS | low polyreactivity
32 | QVQLVESGGGLVQAGGSLRLSCAASGRTFDYYAMGWYRQAPGKERELVARISWNGGSTRYADSVKGRFTISRDNAKNTVYLQMNSLKPEDTAVYYCAARYILLARKYDYWGQGTQVTVSS | high polyreactivity
33 | QVQLVESGGGLVQAGGSLRLSCAASGRTFDYYSMGWYRQAPGTERELVAAISSSGGRTYYADSVKGRFTISRDNAKNTVYLQMNSLKPEDTAVYYCNAVVSRNYEYWGQGTQVTVSS | high polyreactivity
34 | QVQLVESGGGLVQAGGSLRLSCAASGRTFEIYAMGWYRQAPGKERDLVAAITSGGSTYYADSEKGRFTISRDNAKNTVYLQMNSLKPEDTAVYYCAADSSLYGVIRDFDYWGQGTQVTVSS | high polyreactivity
35 | QVQLVESGGGLVQAGGSLRLSCAASGRTFELYAMGWYRQAPGKERELVAAIRQSDVSTYYADSVKGRFTISRDNAKNTVYLQMNSLKPEDTAVYYCAARNRYRRRYYYWGQGTQVTVSS | high polyreactivity
36 | QVQLVESGGGLVQAGGSLRLSCAASGRTFEPNAMGWYRPAPGKERELVAAISSSDGSTYYADSVKGRFTISRDNAKNTVYLQMNSLKPEDTAVYYCAADAGYLYDWPYNYYYWGQGTQVTVSS | low polyreactivity
37 | QVQLVESGGGLVQAGGSLRLSCAASGRTFEQYAMGWYRQARGKERELVAAISGSGGSTFYADSVKGRFTISRDNAKNTVYLQMNSLKPEDTAVYYCNAPGDGYLYDHTYDYWGQGTQVTVSS | low polyreactivity
38 | QVQLVESGGGLVQAGGSLRLSCAASGRTFEQYAMVWYRQAPGKERELVAAISGSGGSTFYADSVKGRFTISRDNAKNTVYLQMNSLKPEDTAVYYCNAPGDGYLYDHTYDYGGQGTQVTVSS | low polyreactivity
39 | QVQLVESGGGLVQAGGSLRLSCAASGRTFEQYSMGWYRQAPGKERELVAAISGSGGSTFYADSVKGRFTISRDNAKNTVYLQMNSLKPEDTAVYYCNAPGDGYLYDHTYDYWGQGTQVTVSS | low polyreactivity
40 | QVQLVESGGGLVQAGGSLRLSCAASGRTFESYVMGWYRQAPGKESELVAAISNGGSTNYADSVKGRFTISRDNAKNTVYLQMNSLKPEDTAVYYCAVRVSGPRGYDYEYWGQGTQVTVSS | low polyreactivity
41 | QVQLVESGGGLVQAGGSLRLSCAASGRTFEYYAMGWYRQAPGKERELVASITSGGITNYADSVKGRFTISRDNAKNTVYLQMNSLKPEDTAVYYCNKRPWTRFDWGQGTQVTVSS | low polyreactivity
42 | QVQLVESGGGLVQAGGSLRLSCAASGRTFFDYTMGWYRQAPGKERELVAAITGGDGSTYYADSVKGRFTISRDNAKNTVYLQMNSLKPEDTAVYYCAAGYTAGSYSLDADYYWGQGTQVTVSS | low polyreactivity
43 | QVQLVESGGGLVQAGGSLRLSCAASGRTFFFYAMGWYRQAPGKERELVAGITSRGTRTYYADSVKGRFTISRDNAKNTVYLQMNSLKPEDTAVYYCATDDCRDWLNYWGQGTQVTVSS | low polyreactivity
